This passage reports Km and kcat results from publication PMC6450514, “Pseudomonas aeruginosa esterase PA2949, a bacterial homolog of the human membrane esterase ABHD6: expression, purification and crystallization” (Acta Crystallographica. Section F, Structural Biology …, 2019).

The data set relates to CCCC(=O)Oc1ccc([N+](=O)[O-])cc1. Description: purified protein. The following applies: 8 nM enzyme, 0.05-1 mM substrate, n-octyl beta-D-glucoside.

In the case of PA2949 (Pseudomonas aeruginosa PAO1), the Km worked out at 170 ± 10 µM and the kcat was found to be 520.4 ± 31.7 s⁻¹.
